The source of these data is the supplement of paper PMC7877785.

The nature of the data set: self-splicing fitness, log relative to wild type (ln ratio); higher = more splicing; Tetrahymena group I intron in knt gene, E. coli kanamycin selection, DiMSum; sequences stand for … in CUCUCU…GGAGGGAAAAGUUAUCAGGCAUGCACCUGGUAGCUAGUCUUUAAACCAAUAGAUUGCAUCGGUUUAAAAGGCAAGACCGUCAAAUUGCGGGAAAGGGGUCAACAGCCGUUCAGUACCAAGUCUCAGGGGAAACUUUGAGAUGGCCUUGCAAAGGGUAUGGUAAUAAGCUGACGGACAUGGUCCUAACCACGCAGCCAAGUCCUAAGUCAACAGAUCUUCUGUUGAUAUGGAUGCAGUUCACAGACUAAAUGUCGGUCGGGGAAGAUGUAUUCUUCUCAUAAGAUAUAGUCGGACCUCUCCUUAAUGGGAGCUAGCGGAUGAAGUGAUGCAACACUGGAGCCGCUGGGAACUAAUUUGUAUGCGAAAGUAUAUUGAUUAGUUUUGGAGUACUCGUGGUCG
The method, boiled down:
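Six replicate transformations of E. coli BL21(DE3) with a pET-22b(+) library were grown overnight at 37°C or 30°C. The library randomised all eight P1ex-region intron nucleotides, the intron lying in the knt kanamycin-resistance gene, and plates were LB agar with or without 25 μg/mL kanamycin plus 100 μg/mL carbenicillin, 50 μM IPTG and 0.2% rhamnose. Pooled colonies were amplicon-sequenced on an Illumina HiSeq 2500, and fitness is the DiMSum error-weighted combination of wild-type-normalised replicate fold changes, kanamycin versus none.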

± gives the uncertainty stated by the source.

As for CGGUAGCAAUAUUACGAUAA, the “self-splicing fitness (ln)” value (30 °C) was -2.55 ± 0.21 and the “self-splicing fitness (ln)” value (37 °C) is -1.61 ± 0.24.
The like results for CGGUAGCAAUAUUACGAUCU were, in that order, -0.105 ± 0.081 and 0.492 ± 0.12.
Regarding CGGUAGCAAUAUUACGCAAG, the “self-splicing fitness (ln)” value reads like this: (30 °C) -1.94 ± 0.11; (37 °C) -1.02 ± 0.12.
The like results for CGGUAGCAAUAUUACGCACG were, in that order, -2.85 ± 0.21 and -1.59 ± 0.26.
The like results for CGGUAGCAAUAUUACGCGCA were, in that order, -1.16 ± 0.14 and -0.13 ± 0.15.
In the case of CGGUAGCAAUAUUACGGACC, the “self-splicing fitness (ln)” value is, setting by setting: (30 °C) -3.71 ± 0.35; (37 °C) -1.29 ± 0.21.
In the case of CGGUAGCAAUAUUACGGAGC, the “self-splicing fitness (ln)” value (30 °C) is -3.01 ± 0.33 and the “self-splicing fitness (ln)” value (37 °C) was -2.91 ± 0.34.
The like results for CGGUAGCAAUAUUACGGCAU were, in that order, -2.98 ± 0.32 and -2.11 ± 0.22.
The like results for CGGUAGCAAUAUUACGGGAA were, in that order, -3.45 ± 0.41 and -2.75 ± 0.29.
The like results for CGGUAGCAAUAUUACGGUUC were, in that order, -2.96 ± 0.3 and -1.93 ± 0.29.
As for CGGUAGCAAUAUUACGUAAC, the “self-splicing fitness (ln)” value (30 °C) is -3.22 ± 0.4 and the “self-splicing fitness (ln)” value (37 °C) was -2.06 ± 0.41.
The like results for CGGUAGCAAUAUUACGUCAU were, in that order, -3.21 ± 0.14 and -2.56 ± 0.15.
The like results for CGGUAGCAAUAUUACGUCCA were, in that order, 0.282 ± 0.15 and 0.197 ± 0.23.
Turning to CGGUAGCAAUAUUACGUUCA, the “self-splicing fitness (ln)” value runs as follows: (30 °C) -1.32 ± 0.13; (37 °C) -0.963 ± 0.15.
CGUAAGCAAUAUUACGAACU: the “self-splicing fitness (ln)” value is -1.27 ± 0.083 (30 °C) and -0.364 ± 0.074 (37 °C).
The like results for CGUAAGCAAUAUUACGCAGA were, in that order, -2.28 ± 0.27 and -2.67 ± 0.38.
The like results for CGUAAGCAAUAUUACGCGUA were, in that order, -3 ± 0.28 and -2.9 ± 0.2.
The like results for CGUAAGCAAUAUUACGCUGU were, in that order, -2.93 ± 0.16 and -2.17 ± 0.21.
For CGUAAGCAAUAUUACGGAAA, the “self-splicing fitness (ln)” value (30 °C) is -3.62 ± 0.47 and the “self-splicing fitness (ln)” value (37 °C) is -2.39 ± 0.39.
The like results for CGUAAGCAAUAUUACGGAUU were, in that order, -3.61 ± 0.3 and -1.49 ± 0.23.
For CGUAAGCAAUAUUACGGCGU, the “self-splicing fitness (ln)” value was -2.28 ± 0.15 (30 °C) and -1.59 ± 0.23 (37 °C).
The like results for CGUAAGCAAUAUUACGGUAA were, in that order, -3.06 ± 0.28 and -1.36 ± 0.17.
The like results for CGUAAGCAAUAUUACGGUCA were, in that order, -2.2 ± 0.15 and -0.467 ± 0.12.
The like results for CGUAAGCAAUAUUACGUAGC were, in that order, -4.38 ± 0.36 and -1.62 ± 0.26.
As for CGUAAGCAAUAUUACGUAUU, the “self-splicing fitness (ln)” value (37 °C) was -0.991 ± 0.15.
With CGUAAGCAAUAUUACGUCCG, the “self-splicing fitness (ln)” value was -0.78 ± 0.059 (30 °C) and -0.649 ± 0.08 (37 °C).
CGUAAGCAAUAUUACGUCCU: the “self-splicing fitness (ln)” value was -1.88 ± 0.15 (30 °C) and -0.604 ± 0.17 (37 °C).
The like results for CGUAAGCAAUAUUACGUCGG were, in that order, -1.2 ± 0.08 and -0.133 ± 0.1.
The like results for CGUAAGCAAUAUUACGUCUC were, in that order, -3.77 ± 0.28 and -1.95 ± 0.17.
In the case of CGUAAGCAAUAUUACGUGUC, the “self-splicing fitness (ln)” value is -1.85 ± 0.22 (30 °C) and -3.01 ± 0.28 (37 °C).
The like results for CGUCAGCAAUAUUACGACCA were, in that order, -0.734 ± 0.11 and -0.297 ± 0.13.
The like results for CGUCAGCAAUAUUACGACCC were, in that order, -0.525 ± 0.18 and 0.0394 ± 0.17.
Regarding CGUCAGCAAUAUUACGAGCG, the “self-splicing fitness (ln)” value by setting is: (30 °C) -3.52 ± 0.15; (37 °C) -1.04 ± 0.15.
On to CGUCAGCAAUAUUACGAGGU, for which the “self-splicing fitness (ln)” value is -3.81 ± 0.47 (30 °C) and -3.03 ± 0.35 (37 °C).
On to CGUCAGCAAUAUUACGAUGA, for which the “self-splicing fitness (ln)” value (30 °C) is -0.998 ± 0.11 and the “self-splicing fitness (ln)” value (37 °C) is 0.0314 ± 0.11.
Regarding CGUCAGCAAUAUUACGAUUA, the “self-splicing fitness (ln)” value is -0.469 ± 0.17 (30 °C) and 0.0103 ± 0.13 (37 °C).
Regarding CGUCAGCAAUAUUACGAUUU, the “self-splicing fitness (ln)” value was -1.01 ± 0.06 (30 °C) and -1.11 ± 0.061 (37 °C).
